For two proteins, Km and kcat results are on record in article doi:10.1101/318345v1.

Substrate in data set [1]: NC(=O)c1ccc[n+]([C@@H]2O[C@H](COP(=O)(O)OP(=O)(O)OC[C@H]3O[C@@H](n4cnc5c(N)ncnc54)[C@H](OP(=O)(O)O)[C@@H]3O)[C@@H](O)[C@H]2O)c1
The data set is described as follows: purified protein. In kind it is biochemical, Pseudomonas aeruginosa. The note with it: 200 μM isocitrate, 5 mM MgCl2, pH 7.5, 37 °C.

Substrate in data set [2]: O=C(O)C[C@H](C(=O)O)[C@@H](O)C(=O)O
The data set is described as follows: purified protein. Conditions: 200 μM NADP+, 5 mM MgCl2, pH 7.5, 37 °C. In kind it is biochemical, Pseudomonas aeruginosa.

B1: ICD (Pseudomonas aeruginosa PAO1) (protein)
chain: MGYQKIQVPATGDKITVNADMSLSVPKNPIIPFIEGDGIGVDISPVMIKVVDAAVEKAYKGERKIAWMEVYAGEKATQVYDQDTWLPQETLDAVRDYVVSIKGPLTTPVGGGIRSLNVALRQQLDLYVCQRPVRWFEGVPSPVKKPGDVDMVIFRENSEDIYAGVEWKAGSPEAEKVIKFLTEEMGVKKIRFTENCGIGIKPVSQEGTKRLVRKALQYAVDNDRSSVTLVHKGNIMKFTEGAFKDWGYEVARDEFGAELLDGGPWMQFKNPKTGKNVVVKDVIADAMLQQILLRPAEYDVIATLNLNGDYLSDALAAEVGGIGIAPGANLSDSVAMFEATHGTAPKYAGQDKVNPGSLILSAEMMLRHMGWTEAADLIIKGTNGAIAAKTVTYDFERLMDGATLLSCSEFGDAMIAKM
Regarding B1, in data set [1], the Km – broadly, the concentration of substrate that gives half-maximal velocity – is 32.3 µM and the kcat (usually the maximal rate divided by the concentration of active sites) was 684.9 s⁻¹. In data set [2], the Km stood at 25.6 µM and the kcat was found to be 608.8 s⁻¹.

B2: IDH (Pseudomonas aeruginosa PAO1) (protein)
chain: MSIRSKITYTFTDEAPALATYSLLPIVKAFAASAGIDVETSDISLAGRILANFADRLEADQRIEDDLARLAVLATSPDANIIKLPNISASVPQLKGAIAELQGLGYKVPDFPEDPQTDEEKEVRARYAKILGSAVNPVLREGNSDRRAPAAVKAYARKHPHSMGKWSMASRSHADYMRGGDFFSSEQSITMAKAGDVRIEFVGKDGKVEVKKQLSLQEGEVLDSMFMSCGKLRDFFEKTLQDCKETGVMWSLHVKATMMKISHPIVFGHAVSVYYKDVFDKWGQLFEELGVNPNNGISSVYDKIKSLPASQQEEILHDIHEVYSHRPEMAMVDSVKGITNLHIPSDVIVDASMPAMIRNSGQMWGKDGKQKDTKAVMPESTYARIYQEMINFCKTNGAFDPTTMGSVPNVGLMAQKAEEYGSHDKTFEMTADGTMRVVLADGSVLMQHKVETGDIWRACQTKDAPIRDWVKLAVTRARQSDTPAIFWLDPERAHDRELRKKVELYLKDHDLTGLDISIMGYNEAIRVSMERLIRGKDTISVTGNVLRDYLTDLFPIMELGTSAKMLSIVPLMAGGGMYETGAGGSAPKHVQQLVEENYLRWDSLGEFLALAVSLEETGIKTGNAKAKLLGKALDEATGKLLDNNKSPSRKVGDIDNRGSHFYLAMYWAQALAAQNEDAELKAHFAPLAKALTEQEATIVAELNAVQGKPAEIGGYYRSNPELTSKVMRPSATFNAAIDSLA
For B2, in data set [2], the Km was determined as 17.7 µM and the kcat amounted to 183.7 s⁻¹.
